Experiments:
SNX27_PDZ [1] = test: nHU-MS, SNX27_PDZ bait, total Jurkat extracts, series 1; format: binding, human; details: for pKapp_HU_not_filtered: SNX27 bait, not filtered for significance; for FC_HU: SNX27 vs MBP control
Experimental: The empty His6-AviTag-MBP-TEV vector was used to produce biotinylated MBP for control experiments. Proteins were coexpressed with BirA biotin ligase (PET21a-BirA, Addgene, no. 20857) in Escherichia coli BL21(DE3) cells. At isopropyl-β-D-thiogalactopyranoside (IPTG) induction (1 mM IPTG at 18°C overnight), 50 μM biotin was added to the media. Harvested cells were lysed in a buffer containing 50 mM tris (pH 7.5), 150 to 300 mM NaCl, 50 μM biotin, 2 mM β-mercaptoethanol, cOmplete EDTA-free protease inhibitor cocktail (Roche, Basel, Switzerland), 1% Triton X-100, and trace amount of deoxyribonuclease, ribonuclease, and lysozyme. Lysates were frozen at −20°C before further purification steps. Lysates were sonicated and centrifuged for clarification. Expressed proteins were captured on in-house prepacked Ni-IDA (Protino Ni-IDA Resin, Macherey-Nagel, Duren, Germany) columns and were washed with at least 10 column volumes of cold wash buffer [50 mM tris (pH 7.5), 150 mM NaCl, and 2 mM β-mercaptoethanol] before elution with 250 mM imidazole. The Ni elution was collected directly on a preequilibrated amylose column (amylose high flow resin, New England Biolabs, Ipswich, MA). Amylose column was washed with 5 column volumes of cold wash buffer before fractionated elution in a buffer containing 25 mM Hepes (pH 7.5), 150 mM NaCl, 1 mM TCEP, 10% glycerol, 5 mM maltose, and cOmplete EDTA-free protease inhibitor cocktail. The concentration of proteins was determined by their ultraviolet absorption at 280 nm before aliquots were snap-frozen in liquid nitrogen and stored at −80°C.
For saturating streptavidin resin with biotinylated peptides or biotin, 50 μl of streptavidin resin was mixed with biotin or peptide at 40 to 60 μM concentration in 6 to 6.5 resin volume for 60 min. To saturate streptavidin resin with biotinylated proteins, 50 μl of streptavidin resin (Streptavidin Sepharose High Performance, Cytiva) was mixed with biotinylated MBP or MBP-PDZ at 40 to 50 μM concentration in 20× resin volume for 60 min. After saturation, resins were washed a single time [10 resin volume, holdup buffer: 50 mM tris (pH 7.5), 300 mM NaCl, and 1 mM TCEP, 0.22-μm filtered] and were depleted with biotin (10 resin volume, 10 min, holdup buffer supplemented with 100 μM biotin). Last, resins were washed two times (10 resin volume, holdup buffer).
For single-point nHU experiments carried out at ~10 μM bait concentration, 50 μl of saturated streptavidin resin was mixed with 200 μl of cell lysate (2 mg/ml). Titration experiments were carried out by mixing control and bait-saturated resin and keeping the total resin volume constant; e.g., ~5 μM bait concentration can be achieved by mixing 25 μl of bait-saturated streptavidin resin with 25 μl of control resin and 200 μl of cell lysate (2 mg/ml). Control and bait-saturated resins were prepared in larger amounts, and a serial dilution was prepared with these presaturated resins to achieve different resin ratios.
Unless specified elswhere, the nHU mixture was incubated at 4°C for 2 hours. After the incubation ended, the resin was separated from the supernatant by a brief centrifugation (15 s, 2000 g). Then, half of the supernatant was removed by pipetting without any delay to avoid any resin contamination; e.g., 100 μl of supernatant is collected if 200 μl of cell lysate was used as analyte. Alternatively, the supernatant can be centrifuged an additional time to clarify it further, removing any possible resin contamination. In principle, the separation of the supernatant should be as fast as possible since any delay can perturb the equilibrium. […] Alternatively, the resin can be separated from the supernatant using filter plates (e.g., various products of Millipore, Burlington, MA) or spin columns (e.g., Pierce spin cups—cellulose acetate filter from Thermo Fisher Scientific, Waltham, MA) to achieve faster separation. […]

SNX27_PDZ [2] = test: AP-MS control pull-down on leftover resin, SNX27_PDZ bait, total Jurkat extracts; format: binding, human; details: for FC_AP: SNX27 vs MBP
Experimental: Leftover beads from nHU-MS experiments were washed three times immediately after the separation of the supernatant [10 resin volume in buffer containing 50 mM tris (pH 8.5), 150 mM NaCl, 1% Triton X-100, 10× cOmplete EDTA-free protease inhibitor cocktail, 2 mM EDTA, and 1 mM TCEP]. Then, the beads were washed two times [10 resin volume buffer containing 50 mM tris (pH 8.5), 150 mM NaCl, and 1 mM TCEP]. Last, captured protein was eluted from the resin in two steps, and the eluted fractions were pooled. For each elution, the beads were incubated for 30 min with three resin volume buffer containing 20 mM tris (pH 8.5), 100 mM NaCl, 500 μM TCEP, and 8 M urea. Between each step, the beads were separated by mild centrifugation, and the supernatant was removed by gentle pipetting.
The nHU samples were precipitated with trichloroacetic acid (TCA) 20% overnight at 4°C and centrifuged at 14,000 rpm for 10 min at 4°C. The protein pellets were washed twice with 1 ml of cold acetone and air-dried. The protein extracts were solubilized in 8 M urea, reduced with 5 mM TCEP for 30 min, and alkylated with 10 mM iodoacetamide for 30 min in the dark. Double digestion was performed at 37°C with 500 ng of endoproteinase Lys-C (Wako, Richmond, USA) for 4 hours, followed by fourfold dilution and an overnight digestion with 500 ng of trypsin (Promega, Charbonnieres les Bains, France). Peptide mixtures were then desalted on a C18 spin-column and dried on a speed vacuum.
Samples were analyzed using an Ultimate 3000 nano-RSLC coupled in line via a nano-electrospray ionization source, with an LTQ-Orbitrap ELITE mass spectrometer (Thermo Fisher Scientific, San Jose, CA) or with the Orbitrap Exploris 480 mass spectrometer (Thermo Fisher Scientific, Bremen, Germany) equipped with a high field asymmetric ion mobility spectrometry (FAIMS) module. Peptide mixtures were injected in 0.1% trifluoroacetic acid on a C18 Acclaim PepMap100 trap column [75 μm inner diameter (ID) × 2 cm, 3 μm, 100 Å, Thermo Fisher Scientific] for 3 min at 5 μl/min with 2% acetonitrile (ACN) and 0.1% formic acid (FA) in H2O and then separated on a C18 Acclaim PepMap100 nano-column (75 μm ID × 50 cm, 2.6 μm, 150 Å, Thermo Fisher Scientific) at 300 nl/min and 40°C with a 90-min linear gradient from 5 to 30% buffer B (A: 0.1% FA in H2O/B: 80% ACN, 0.1% FA in H2O) and regeneration at 5% B. Spray voltage was set to 2.1 kV and heated capillary temperature was set to 280°C.
For the Orbitrap Elite, the mass spectrometer was operated in positive ionization mode in data-dependent mode with survey scans from mass/charge ratio (m/z) 350 to 1500 acquired in the Orbitrap at a resolution of 120,000 at m/z 400. The 20 most intense peaks from survey scans were selected for further fragmentation in the linear ion trap with an isolation window of 2.0 Da and were fragmented by collision-induced dissociation (CID) with a normalized collision energy of 35% (TOP 20 CID method). Unassigned and single-charged states were excluded from fragmentation. The ion target value for the survey scans (in the Orbitrap) and the MS2 mode (in the linear ion trap) were set to 1E6 and 5E3, respectively, and the maximum injection time was set to 100 ms for both scan modes. Dynamic exclusion was set to 20 s after one repeat count with mass width at ±10 parts per million (ppm).
Proteins were identified by database search using SequestHT (Thermo Fisher Scientific) with Proteome Discoverer 2.4 software (PD2.4, Thermo Fisher Scientific) on the human FASTA database downloaded from UniProt (reviewed, release 2021_06_03, 20380 entries, https://uniprot.org/, complemented with sequences of likely contaminants, such as MBP, streptavidin, or trypsin). Precursor and fragment mass tolerances were set at 7 ppm and 0.6 Da, respectively, and up to two missed cleavages were allowed. […]

[3] = nHU-MS, SNX27/MBP, total Jurkat extract, sheet "SNX27&Jurkat"
[4] = nHU-MS, SNX27 bait vs MBP control, total Jurkat extract, sheet "SNX27&Jurkat"
[5] = nHU-MS, total Jurkat extract, sheet "SNX27&Jurkat"
[6] = AP-MS control pull-down, SNX27/MBP, total Jurkat extract
[7] = AP-MS control pull-down, total Jurkat extract
[8] = Jurkat, series 1, leftover resin, n = 6

Row | Molecule | Ratio_HU (SNX27_PDZ [1]; [3]) | BI_HU (SNX27_PDZ [1]; [4]) | pKapp_HU_not_filtered (SNX27_PDZ [1]; nHU-MS, total Jurkat extract) | FC_HU (SNX27_PDZ [1]; [5]) | Ratio_AP (SNX27_PDZ [2]; [6]) | FC_AP (SNX27_PDZ [2]; [7]) | BI_HU (SNX27_PDZ [1]; Jurkat, series 1, n = 6) | FC_HU (log2 fold change) (SNX27_PDZ [1]; Jurkat, series 1, n = 6) | Ratio_HU (SNX27_PDZ [1]; Jurkat, series 1, n = 6) | pKapp_significant_binders_HU (SNX27_PDZ [1]; apparent, Eq. 2, Jurkat, series 1, significant binders (1 σ, P < 0.05)) | FC_AP (log2 fold change) (SNX27_PDZ [2]; [8]) | Ratio_AP (SNX27_PDZ [2]; [8]) | BINDER_AP (SNX27_PDZ [2]; AP-MS control pull-down, total Jurkat extract, BINDS / DOES NOT BIND)
1 | RAE1 (protein, UniProt P78406 1-368, looked up) mRNA export factor RAE1: MSLFGTTSGFGTSGTSMFGSATTDNHNPMKDIEVTSSPDDSIGCLSFSPPTLPGNFLIAGSWANDVRCWEVQDSGQTIPKAQQMHTGPVLDVCWSDDGSKVFTASCDKTAKMWDLSSNQAIQIAQHDAPVKTIHWIKAPNYSCVMTGSWDKTLKFWDTRSSNPMMVLQLPERCYCADVIYPMAVVATAERGLIVYQLENQPSEFRRIESPLKHQHRCVAIFKDKQNKPTGFALGSIEGRVAIHYINPPNPAKDNFTFKCHRSNGTNTSAPQDIYAVNGIAFHPVHGTLATVGSDGRFSFWDKDARTKLKTSEQLDQPISACCFNHNGNIFAYASSYDWSKGHEFYNPQKKNYIFLRNAAEELKPRNKK | 0.6404 | 0.3596 | 4.751 | -0.643 | 3.111 | 1.637 | – | – | – | – | – | – | –
2 | DARS1: Aspartate--tRNA ligase, cytoplasmic (protein, UniProt P14868 1-501, looked up) Aspartate--tRNA ligase, …: MPSASASRKSQEKPREIMDAAEDYAKERYGISSMIQSQEKPDRVLVRVRDLTIQKADEVVWVRARVHTSRAKGKQCFLVLRQQQFNVQALVAVGDHASKQMVKFAANINKESIVDVEGVVRKVNQKIGSCTQQDVELHVQKIYVISLAEPRLPLQLDDAVRPEAEGEEEGRATVNQDTRLDNRVIDLRTSTSQAVFRLQSGICHLFRETLINKGFVEIQTPKIISAASEGGANVFTVSYFKNNAYLAQSPQLYKQMCICADFEKVFSIGPVFRAEDSNTHRHLTEFVGLDIEMAFNYHYHEVMEEIADTMVQIFKGLQERFQTEIQTVNKQFPCEPFKFLEPTLRLEYCEALAMLREAGVEMGDEDDLSTPNEKLLGHLVKEKYDTDFYILDKYPLAVRPFYTMPDPRNPKQSNSYDMFMRGEEILSGAQRIHDPQLLTERALHHGIDLEKIKAYIDSFRFGAPPHAGGGIGLERVTMLFLGLHNVRQTSMFPRDPKRLTP | – | – | – | – | – | – | 0.3534 | -0.629 | 0.6466 | 4.739 | 3.29 | 9.779 | –
3 | BYSL (protein, UniProt Q13895 1-437, looked up) Bystin: MPKFKAARGVGGQEKHAPLADQILAGNAVRAGVREKRRGRGTGEAEEEYVGPRLSRRILQQARQQQEELEAEHGTGDKPAAPRERTTRLGPRMPQDGSDDEDEEWPTLEKAATMTAAGHHAEVVVDPEDERAIEMFMNKNPPARRTLADIIMEKLTEKQTEVETVMSEVSGFPMPQLDPRVLEVYRGVREVLSKYRSGKLPKAFKIIPALSNWEQILYVTEPEAWTAAAMYQATRIFASNLKERMAQRFYNLVLLPRVRDDVAEYKRLNFHLYMALKKALFKPGAWFKGILIPLCESGTCTLREAIIVGSIITKCSIPVLHSSAAMLKIAEMEYSGANSIFLRLLLDKKYALPYRVLDALVFHFLGFRTEKRELPVLWHQCLLTLVQRYKADLATDQKEALLELLRLQPHPQLSPEIRRELQSAVPRDVEDVPITVE | 0.6423 | 0.3577 | 4.747 | -0.6386 | 9.097 | 3.185 | – | – | – | – | – | – | DOES NOT BIND

From paper PMC9770967, “Native holdup (nHU) to measure binding affinities from cell extracts” (Science Advances, 2022)
